Results: the supplement of paper PMC10567573

B1: CLCN6 (parent)
chain: ILRSQLVTLLVRGVCYSESQSSAS
B2: USP39 (parent)
chain: FVEKNPTIVNFPITNVDLREYLSE

Variants of: B1
Assay: protein stability index of a GFP-peptide fusion (GPS, HEK-293T) (PSI 1-6); higher = more stable
Conditions: c terminus: a fixed tail appended
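Note: lentivirally expressed fusions sorted by FACS into six bins by GFP to DsRed ratio, PSI derived from sequencing read proportions per bin multiplied by bin number.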

Protein stability index, by site and new letter:
S19: W 2.92, H 3.62, L 3.29, M 3.15, G 1.57, F 3.38, Y 2.44, T 4.83, A 4.08, C 3.23
Q5: M 3.17, K 2.79, N 3.29, W 1.44, D 2.31, P 2.72, E 3.8, V 2.98, F 2.23
S22: I 2.29, A 1.76, H 3.54, P 2.17, R 3.39, K 3.18, V 2.66
S4: V 2.58, H 3.41, T 2.68, Y 2.3, D 2.21, E 3.85, I 3.85, L 2.56, M 2.78
I1: F 3.23, D 3.23, R 2.09, C 2.09, H 1.82, G 2.2, S 3.03
L6: F 2.41, N 1.76, V 1.64, P 2.04, C 3.02, G 2.86, R 2.67, T 2, E 1.88, H 2.17, Y 2.02, M 1.98
V7: M 2.25, A 2.81, P 1.98, I 2.83, Y 3.04, Q 2.43, K 2.23, H 2.63, S 2.18, E 2.37, G 1.75, R 2.57, W 1.96, T 2.46
Y16: V 2.94, D 2.09, K 1.32, E 1.94, H 2.77, L 3.45, W 2.61, T 3.87, A 3.1, S 2.22
E18: N 3.67, D 2.19, R 2.1, T 4.5, W 2.86, Q 2.09, G 3.04, H 2.13, F 5.28, P 3.08, L 2.71
Q20: E 3.06, C 4.15, L 2.77, A 4.07, I 1.93, D 1.56
L2: M 3.88, Y 3.62, D 1.66, H 1.3, F 2.44, S 3.23, K 2.42, Q 2.62, N 2.06, I 3.02
R12: V 3.56, I 2.68, D 2, K 3.37, L 3.03, N 1.67, P 2.67
S21: N 2.81, I 2.59, L 2.14, K 2.66
A23: P 3.09, N 4.11, H 2.38, Y 3, I 4.16, C 2.96, Q 3.96, W 4.14
V14: N 1.57, S 2.76, F 2.46, T 3.29, H 2.01, K 2.87, E 1.47, W 2.82, Q 3.26, R 2.67
S17: H 3, D 2.43, K 2.16, Q 1.98, I 3.39, T 2.24
L9: W 2.83, P 2.21, Q 1.69, K 1.99, G 1.8, N 1.59, H 1.39, E 1.94, T 2.92, R 1.6
C15: R 3.44, Y 4.15, N 1.57, P 2.23, A 3.2, I 3.23
R3: M 2.62, Y 2.72, P 2.36, C 3.38, I 3.78, A 2.34, Q 3.3
T8: L 1.83, P 2.12, M 2.8, N 2.15, H 2.18, G 2.01, E 3.03, V 2.62
S24: G 3.21, W 2.9, F 3.24, N 2.4, Q 1.85, T 2.7, R 2.78, M 4.04
V11: R 2.01, N 3.1, P 2.1, C 2.1, G 2.39, E 1.54, L 4.2, W 2.92, Q 2, S 1.78, D 2.02
L10: T 2.46, Q 1.72, D 1.8, R 2.14, H 2.07, W 3.87, S 1.31, N 2.49, C 2.21, M 2.93
G13: D 3.12, V 3.06, F 4.5, N 3.53, Q 3.06, E 1.72, R 3.25, L 2.53, H 3.18

Variants of: B2
Assay: as above
Conditions: c terminus: a fixed tail appended

Protein stability index, by site and new letter:
Y21: C 1.6, Q 1.87, S 2.27, F 2.04, I 2.04, E 2.21, V 1.52, A 2.35, T 1.86, W 1.47, R 1.57, P 1.62, D 1.71, H 2.84, G 2.44, L 2.27, N 1.9, M 1.49, K 1.21
R19: P 2.08, L 2.06, E 2.09, V 1.83, C 2.05, I 2.49, Y 2.1, A 2.92, G 1.64, D 1.44, S 1.31, K 1.78, N 1.99, H 1.25, F 2.81, M 1.65, Q 2.35, W 2.13, T 1.63
L22: E 1.75, K 2.09, G 2.12, N 1.47, I 1.93, M 2.07, H 1.5, Y 1.9, Q 2.44, S 2.49, D 1.64, A 2.47, T 2.03, V 1.83, C 1.12, P 1.84, W 1.74, F 2.1, R 1.66
E24: M 1.59, K 1.84, P 2.1, C 2.11, H 2.5, N 2.24, G 2.14, Q 2.04, F 2.02, I 1.64, S 1.88, L 2.27, A 2.19, W 1.93, R 1.53, Y 1.84, D 1.37, T 1.78
L18: H 1.42, I 2.53, W 2.33, V 2.65, K 1.3, R 1.71, N 1.78, M 1.64, T 1.54, Y 1.92, Q 2.64, P 1.24, S 1.43
S23: H 2.76, M 2, V 1.77, R 2.02, G 1.34, C 2.41, N 1.65, I 3.78, T 1.06, Y 4.51, L 1.11, P 2.13, E 1.83, K 2.59, Q 1.78, D 1.84, A 1.57, F 2.12
E20: G 1.13, D 1.81, K 2.56, S 2.5, R 1.41, F 1.71, P 2.02, Q 2.08, M 2.41, W 1.77, Y 2.88, N 1.55, A 1.46, H 2.01, T 1.46, L 1.39, C 1.68, I 2.01, V 2.28
